Test results: US7329737 (DYAX, dated 2008)

Target: T1, hK1 (human tissue kallikrein 1), recombinant (human, UniProt P06870 25-262)
T1 construct: Expressed in P. pastoris from KLK1 cDNA and purified; enzymatically active; also called KLK1; Recombinant (Pichia) Kallikrein
Experiment: SPR

Row | Binder | Kd | koff | kon
1 | M0102-A04 (Fab, V domains shown) VH: EVQLLESGGGLVQPGGSLRLSCAASGFTFSHYVMNWVRQAPGKGLEWVSRIYPSGGVTVYADSVKGRFTISRDNSKNTLYLQMNSLRAEDTAVYYCARGYGMDVWGQGTMVTVSS VL: AQSELTQPPSASGTPGQRVTISCSGSSSNIGSNYVYWYQQYPGTVPKLLIHSNNQRPSGVPDRFSGPKSGTSASLAISGLRSEDEADYYCATWDNSLSAWVFGGGTKLTVLR | 13.3 nM | 0.00435 s⁻¹ | 327000 M⁻¹ s⁻¹
2 | M0103-A03 (Fab, V domains shown) VH: EVQLLESGGGLVQPGGSLRLSCAASGFTFSHYPMSWVRQAPGKGLEWVSYIRSGGYTTYADSVKGRFTISRDNSKNTLYLQMNSLRAEDTAVYYCARERVFCSGGRCGSYFDYWGQGTLVTVSS VL: DIQMTQSPSSVSASVGDRVTITCRASQDVRRFLAWYQQKPGKAPKLLIYAASSLQSGVPSRFSGSGSGTDFTLTISSLQPEDFATYYCQQANSFPITFGQGTRLEIKR | 10.6 nM | 0.00988 s⁻¹ | 931000 M⁻¹ s⁻¹
3 | M0108-C10 (Fab, V domains shown) VH: EVQLLESGGGLVQPGGSLRLSCAASGFTFSRYVMAWVRQAPGKGLEWVSVIRPSGGKTLYADSVKGRFTISRDNSKNTLYLQMNSLRAEDTAVYYCARVAGRVGVPATKKNWFDPWGQGTLVTVSS VL: AQSVLTQPASVSGSPGQSITISCTGTSSDVGGYNYVSWYQQHPGQPPKLIIYEVSNRASGVSNRFSGSKFGNTASLTISGLQSEDEADYHCSSYTSSTTLLFGGGTRLTVLG | 12.2 nM | 0.00431 s⁻¹ | 353000 M⁻¹ s⁻¹
4 | M0111-B02 (Fab, V domains shown) VH: EVQLLESGGGLVQPGGSLRLSCAASGFTFSKYWMAWVRQAPGKGLEWVSVIYPSGGQTKYADSVKGRFTISRDNSKNTLYLQMNSLRAEDTAVYYCTLMRYGDRFDYWGQGTLVTVSS VL: AQYELTQDPAVSVALGQTVRITCQGDSLRSYYASWYQQKPGQAPVLVIYSKSNRPSGIPDRFSGSSSGSTASLTITGAQAEDEADYYCNSRDSSGNHLVFGGGTKLTVL | 12.7 nM | 1170 s⁻¹ | –
5 | M0096-E11 (Fab, V domains shown) VH: EVQLLESGGGLVQPGGSLRLSCAASGFTFSHYLMYWVRQAPGKGLEWVSSIYPSGGFTAYADSVKGRFTISRDNSKNTLYLQMNSLRAEDTAVYYCARRGVYGTFDIWGQGTMVTVSS VL: DIQMTQSPLSLSASVGDRVTMTCRASQTISSYLNWYQQKPGKAPKLLIYTTSSLQSGVPSRFSGSGSGTEFTLTISSLQPEDFATYYCQQSHSSPTFGGGTKVEIKR | 10.1 nM | 0.00836 s⁻¹ | 827000 M⁻¹ s⁻¹
6 | M0099-C12 (Fab, V domains shown) VH: EVQLLESGGGLVQPGGSLRLSCAASGFTFSRYAMHWVRQAPGKGLEWVSSIWPSGGATFYADSVKGRFTISRDNSKNTLYLQMNSLRAEDTAVYYCATSPTLNAFHIWGQGTMVTVSS VL: AQSVLTQPASVSGSPGQSITISCTGTTSDVGGYKYVSWYQHHPGKVPKLIIYEVNHRPSGVSHRFSGSKSGNTASLIISALQAEDEADYYCYSYTSDSTPYVFGTGTKVTVL | 13 nM | 0.00461 s⁻¹ | 354000 M⁻¹ s⁻¹
7 | M0109-E08 (Fab, V domains shown) VH: EVQLLESGGGLVQPGGSLRLSCAASGFTFSHYTMLWVRQAPGKGLEWVSSIYSSGGSTYYADSVKGRFTISRDNSKNTLYLQMNSLRAEDTAVYYCARVGVWYGMDVWGQGTTVTVSS VL: not shown | 10.1 nM | 0.00889 s⁻¹ | 880000 M⁻¹ s⁻¹
8 | M0103-F07 (Fab, V domains shown) VH: EVQLLESGGGLVQPGGSLRLSCAASGFTFSLYAMHWVRQAPGKGLEWVSSIRPSGGLTKYADSVKGRFTISRDNSKNTLYLQMNSLRAEDTAVYYCARVGVWYGMDVWGQGTTVTVSS VL: AQSALTQPASVSGSPGQSITISCTGTSNDIGRTNYVSWYRQDPGRAPKLILFEVSNRPSGISNRFSASKSGSTASLTISGLQADDESDYYCSSCTTAPVCVFGNGTRVTVLG | 13.2 nM | 0.00743 s⁻¹ | 564000 M⁻¹ s⁻¹
9 | M0112-C02 (Fab, V domains shown) VH: EVQLLESGGGLVQPGGSLRLSCAASGFTFSNYYMLWVRQAPGKGLEWVSYIRSSGGSTRYADSVKGRFTISRDNSKNTLYLQMNSLRAEDTAVYYCAKPTVDGAFDYWGQGTLVTVSS VL: DIQMTQSPGTLSLSPGDRATLSCRASQSVSSNYLAWYQQKPGQAPRLLIYGASSRATGIPDRFSGSGSGTDFTLTISRLEPEDFGVYYCQQFGSSLFTFGPGTKVNIKR | 10.9 nM | 0.00523 s⁻¹ | 481000 M⁻¹ s⁻¹
10 | M0105-F02 (Fab, V domains shown) VH: EVQLLESGGGLVQPGGSLRLSCAASGFTFSRYWMAWVRQAPGKGLEWVSSIGPSGGSTKYADSVKGRFTISRDNSKNTLYLQMNSLRAEDTAVYYCARTARWLSFDYWGQGTLVTVSS VL: DIQMTQSPSTLSASVGDRVTITCRASQSISSWLAWYQQKPGEAPKLLIYAASSLRNGVPSRFIGSGSGTDFTLTISSLQPEDFATYYCQQSYSTPPTFGGGTKVEIKR | 10.9 nM | 0.0103 s⁻¹ | 947000 M⁻¹ s⁻¹
11 | M0099-A09 (Fab, V domains shown) VH: EVQLLESGGGLVQPGGSLRLSCAASGFTFSRYAMFWVRQAPGKGLEWVSSISPSGGKTRYADSVKGRFTISRDNSKNTLYLQMNSLRAEDTAVYYCARGGGTALDYWGQGTLVTVSS VL: DIQMTQSPGTLSLSPGERATLSCRASQSVYSSYLAWYQQKPGQAPRLLIYAASNRAIGIPDRFSGSGSGTDFTLTISSMQPEDFATYYCQQSYSTPRFGQGTKLEIKR | 10.7 nM | 0.00285 s⁻¹ | 267000 M⁻¹ s⁻¹
12 | M0092-B12 (Fab, V domains shown) VH: EVQLLESGGGLVQPGGSLRLSCAASGFTFSQYLMAWVRQAPGKGLEWVSSIYPSGGNTNYADSVKGRFTISRDNSKNTLYLQMNSLRAEDTAVYYCARDRSIVPYSSSWYMPRDYYYGMDVWGQGTTVTVSS VL: DIQMTQSPSSLSASVGDRVTITCRASQGISNYLAWYQQKPGKVPKLLIYAASTLQSGVPSRFSGSGSGTDFTLTISSLQPEDFATYYCQQSYSTPYTFGQGTKLEVRR | 12.1 nM | 0.00171 s⁻¹ | 141000 M⁻¹ s⁻¹
13 | M0104-B03 (Fab, V domains shown) VH: EVQLLESGGGLVQPGGSLRLSCAASGFTFSNYTMFWVRQAPGKGLEWVSSIYPSGGITRYADSVKGRFTISRDNSKNTLYLQMNSLRAEDTAVYYCARVSFWNAFDIWGQGTMVTVSS VL: not shown | 10.1 nM | 0.00711 s⁻¹ | 707000 M⁻¹ s⁻¹
14 | M0099-E11 (Fab, V domains shown) VH: EVQLLESGGGLVQPGGSLRLSCAASGFTFSHYTMVWVRQAPGKGLEWVSSIYSSGGRTNYADSVKGRFTISRDNSKNTLYLQMNSLRAEDTAVYYCARIVVVPSAQFYFYYGMDVWGQGTTVTVSS VL: DIQMTQSPSTLSASVGDRVTITCRASQSISNWLAWYQQKPGRAPKLLIYKASTLESGVPSRFSGSGSGTEFTLTISSLQPDDFATYYCQHYNSYSLFGQGTKLEIKR | 13.2 nM | 0.00796 s⁻¹ | 605000 M⁻¹ s⁻¹

Continued, values first:

Row | Kd | koff | kon | Binder
15 | 11.2 nM | 0.00536 s⁻¹ | 478000 M⁻¹ s⁻¹ | M0125-C04 (Fab, V domains shown) VH: EVQLLESGGGLVQPGGSLRLSCAASGFTFSHYVMDWVRQAPGKGLEWVSSIYPSGGWTRYADSVKGRFTISRDNSRNTLYLQMNSLRAEDTAVYYCARRGQWLVLDYWGQGTLVTVSS VL: AQSELTQPASVSGSPGQSITISCAGTSSDLGGYDYVSWYQQYPGKAPKLIIYQVGRRPSGVSNRFSGSKSGNTASLTISGLQTEDEADYYCSSYTSSRTRVFGGGTRVTVLG
16 | 11.8 nM | 0.000802 s⁻¹ | 68200 M⁻¹ s⁻¹ | M0122-H04 (Fab, V domains shown) VH: EVQLLESGGGLVQPGGSLRLSCAASGFTFSRYAMAWVRQAPGKGLEWVSSIGSSGGVTKYADSVKGRFTISRDNSKNTLYLQMNSLRAEDTAVYYCAAPRGRYYYDSSGYYYGGVFDYWGQGTLVTVSS VL: AQYELTQPRSVSGSPGQSVTISCTGTSSDVGGFNYVSWYQQHPGKAPKLMIYDVSKRPSGVPDRFSGSKSGTTASLTISGLQADDEADYYCCSYTGNYTYVFGTGTKVTVLG
17 | 12.5 nM | 0.000829 s⁻¹ | 66400 M⁻¹ s⁻¹ | M0138-B06 (Fab, V domains shown) VH: EVQLLESGGGLVQPGGSLRLSCAASGFTFSPYTMSWVRQAPGKGLEWVSGIYPSGGETWYADSVKGRFTISRDNSKNTLYLQMNSLRAEDTAVYYCAKNINLRYDILTGYFDFWGQGTMVTVSS VL: DIQMTQSPSSVSASVGDRVTITCRASQGISSWLAWYQQKPGKAPKLLIYAASSLQSGVPSRFSGSGSGTDFTLTISSLQPEDFATYYCQQANSFPLTFGGGTKVEIKR
18 | 12.2 nM | 0.00503 s⁻¹ | 411000 M⁻¹ s⁻¹ | M0139-A04 (Fab, V domains shown) VH: EVQLLESGGGLVQPGGSLRLSCAASGFTFSHYPMTWVRQAPGKGLEWVSSIRPSGGNTGYADSVKGRFTISRDNSKNTLYLQMNSLRAEDTAVYYCARLTGYSSGWFWAYGMDVWGQGTTVTVSS VL: DIQMTQSPGTLSLSPGDRATLSCRASQSVSSSYLAWYQQKAGQAPRLLIYGAASRATGIPDRFSGSGSGTDFTLTISRLEREDFAVYYCQQYGSSPLITFGQGTRLEIKR
19 | 12.7 nM | 0.022 s⁻¹ | 1.73e+06 M⁻¹ s⁻¹ | M0129-B09 (Fab, V domains shown) VH: EVQLLESGGGLVQPGGSLRLSCAASGFTFSRYWMHWVRQAPGKGLEWVSSIGPSGGVTKYADSVKGRFTISRDNSKNTLYLQMNSLRAEDTAVYYCARHGSWGGMDVWGQGTTVTVSS VL: DIQMTQSPSFLSASVGDRVTITCRASQGISSYLAWYQQKPGKAPKLLIYAASTLQSGVPSRFSGSGSGTEFTLTISSLQPEDFATYYCQQLNSYPRTFGQGTKVEIKR
20 | 13.7 nM | 0.00483 s⁻¹ | 352000 M⁻¹ s⁻¹ | M0119-B09 (Fab, V domains shown) VH: EVQLLESGGGLVQPGGSLRLSCAASGFTFSWYWMYWVRQAPGKGLEWVSVIGSSGGVTKYADSVKGRFTISRDNSKNTLYLQMNSLRAEDTATYYCARGPYRGYFDYWGQGTLVTVSS VL: DIQMTQSPATLSVSPGEGATLSCRASQSVGNSLAWYQQKPGQAPRVLVYGASTRASGIPARFSGSGSVTEFTLTISSLQSEDFAVYYCQEYNKWPITFGQGTRLERKR
